Results from patent publication US20150344570A1 (published 2015).

T1: FcγRIIa R (human, UniProt P12318 34-217)
T1 construct: extracellular domain; also called FcgRIIa R type; 2aR; not shown: His tag at the C terminus
T1 sequence (looked up): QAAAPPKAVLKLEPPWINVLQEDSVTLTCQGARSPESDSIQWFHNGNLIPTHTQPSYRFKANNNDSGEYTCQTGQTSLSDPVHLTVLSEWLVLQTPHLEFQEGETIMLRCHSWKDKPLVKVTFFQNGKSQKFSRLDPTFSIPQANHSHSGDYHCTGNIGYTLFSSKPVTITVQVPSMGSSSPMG

T2: FcγRIIb (human, UniProt P31994 43-217)
T2 construct: extracellular domain; also called FcgRIIb; 2b; not shown: His tag at the C terminus
T2 sequence (looked up): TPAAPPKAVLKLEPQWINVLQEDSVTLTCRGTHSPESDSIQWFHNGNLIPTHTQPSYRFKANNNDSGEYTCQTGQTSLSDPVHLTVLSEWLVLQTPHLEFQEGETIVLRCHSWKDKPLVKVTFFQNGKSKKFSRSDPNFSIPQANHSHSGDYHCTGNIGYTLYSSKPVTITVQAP

T3: FcγRIIa H (FcγRIIa type H, His at position 131), extracellular domain with C-terminal His tag (human, UniProt P12318 34-217)
T3 construct: extracellular domain; also called FcgRIIa H; 2aH
T3 sequence (looked up): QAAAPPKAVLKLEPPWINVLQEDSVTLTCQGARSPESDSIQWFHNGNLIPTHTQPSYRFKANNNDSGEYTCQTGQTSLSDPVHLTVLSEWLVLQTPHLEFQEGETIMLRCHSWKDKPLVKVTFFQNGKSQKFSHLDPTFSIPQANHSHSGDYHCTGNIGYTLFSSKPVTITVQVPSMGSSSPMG

T4: FcγRIIb (human, UniProt P31994 43-217)
T4 construct: extracellular domain; also called FcgRIIb; 2b
T4 sequence (looked up): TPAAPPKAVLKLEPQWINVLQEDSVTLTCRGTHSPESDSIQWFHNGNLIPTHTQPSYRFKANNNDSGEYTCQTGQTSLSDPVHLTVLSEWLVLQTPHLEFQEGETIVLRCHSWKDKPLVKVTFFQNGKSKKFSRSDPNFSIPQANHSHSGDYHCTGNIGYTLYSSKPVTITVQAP

T5: FcγRIIa H (human, UniProt P12318 34-217)
T5 construct: extracellular domain; also called FcgRIIa H; FcγRIIa type H
T5 sequence (looked up): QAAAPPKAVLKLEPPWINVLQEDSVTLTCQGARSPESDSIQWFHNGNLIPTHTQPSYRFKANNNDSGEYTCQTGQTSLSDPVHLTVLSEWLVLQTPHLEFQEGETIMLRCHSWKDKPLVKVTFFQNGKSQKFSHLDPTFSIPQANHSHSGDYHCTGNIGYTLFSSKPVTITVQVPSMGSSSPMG


Assays:
FcγRIIa R = target: T1, FcγRIIa R; experiment: SPR, relative to GpH7-A5/GpH7-B3/GpL16-k0
FcγRIIb [1] = target: T2, FcγRIIb; experiment: SPR, relative to GpH7-A5/GpH7-B3/GpL16-k0
[2] = target: T3, FcγRIIa H (FcγRIIa type H, His at …); experiment: SPR Biacore, relative binding, GpH7-B3/GpL16-k0 (HoCon Ab)=100
Method: Analysis of interaction between objective antibody and the FcγR was carried out using Biacore T100 (GE Healthcare). HBS-EP+ (GE Healthcare) was used as the running buffer, and the measurement temperature was set to 25° C. Chips produced by immobilizing the antigen peptide by the amine coupling method to a Series S Sencor Chip CM5 (GE Healthcare), or alternatively, chips produced by allowing preliminarily biotinylated antigen peptides to interact with and immobilize onto a Series S Sensor Chip SA (certified) (GE Healthcare) were used. Antibodies of interest were captured onto an antigen peptide-immobilized chip, and allowed to interact to each FcγR diluted with running buffer. To regenerate and repeatedly use the chip, the antibodies captured on the chip were washed off by reacting 10 mM glycine-HCl, pH 1.5.

FcγRIIb [3] = target: T4, FcγRIIb; experiment: SPR (Biacore), antibody captured, FcγR analyte; binding relative to GpH7-A5/GpH7-B3/GpL16-k0 = 100
FcγRIIa H = target: T5, FcγRIIa H; experiment: as above

He/Con_2aR (FcγRIIa R)	He/Con_2b (FcγRIIb [1])	Ho/Con_2aH [2]	Binder	other results
98.2 control = 100	116 control = 100		GpH7-A5/GpH7-B3 variant A327_01G/GpL16-k0 (antibody, human IgG1, kappa, Heterodimerized anti-glypican-3 IgG1; mutation in the GpH7-B3 chain only; also called He Ab) heavy 1: not shown heavy 2: not shown light: DIVMTQSPLSLPVTPGEPASISCQASESLVHSNRNTYLHWYLQKPGQSPQLLIYKVSNRFSGVPDRFSGSGSGTDFTLKISRVEAEDVGVYYCSQNTHVPPTFGQGTKVEIERTVAAPSVFIFPPSDEQLKSGTASVVCLLNNFYPREAKVQWKVDNALQSGNSQESVTEQDSKDSTYSLSSTLTLSKADYEKHKVYACEVTHQGLSSPVTKSFNRGEC	
		119 % of control	GpH7-B3 variant I332_02A/GpL16-k0 (antibody, human IgG1, kappa, both H chains mutated; also called Ho Ab) heavy: not shown light: DIVMTQSPLSLPVTPGEPASISCQASESLVHSNRNTYLHWYLQKPGQSPQLLIYKVSNRFSGVPDRFSGSGSGTDFTLKISRVEAEDVGVYYCSQNTHVPPTFGQGTKVEIERTVAAPSVFIFPPSDEQLKSGTASVVCLLNNFYPREAKVQWKVDNALQSGNSQESVTEQDSKDSTYSLSSTLTLSKADYEKHKVYACEVTHQGLSSPVTKSFNRGEC	
		110 % of control	GpH7-B3 variant A330_12R/GpL16-k0 (antibody, human IgG1, kappa, both H chains mutated; also called Ho Ab) heavy: not shown light: DIVMTQSPLSLPVTPGEPASISCQASESLVHSNRNTYLHWYLQKPGQSPQLLIYKVSNRFSGVPDRFSGSGSGTDFTLKISRVEAEDVGVYYCSQNTHVPPTFGQGTKVEIERTVAAPSVFIFPPSDEQLKSGTASVVCLLNNFYPREAKVQWKVDNALQSGNSQESVTEQDSKDSTYSLSSTLTLSKADYEKHKVYACEVTHQGLSSPVTKSFNRGEC	
			GpH7-A5/GpH7-B3 variant V266_06M/GpL16-k0 (antibody, human IgG1, kappa, Heterodimerized antibody, alteration in one H chain only; also called He Ab V266M) heavy 1: not shown heavy 2: not shown light: DIVMTQSPLSLPVTPGEPASISCQASESLVHSNRNTYLHWYLQKPGQSPQLLIYKVSNRFSGVPDRFSGSGSGTDFTLKISRVEAEDVGVYYCSQNTHVPPTFGQGTKVEIERTVAAPSVFIFPPSDEQLKSGTASVVCLLNNFYPREAKVQWKVDNALQSGNSQESVTEQDSKDSTYSLSSTLTLSKADYEKHKVYACEVTHQGLSSPVTKSFNRGEC	He/Con_2b (FcγRIIb [3]): 251 % of control; He/Con_2aH (FcγRIIa H): 83.9 % of control
97.6 control = 100	103 control = 100		GpH7-A5/GpH7-B3 variant I332_02A/GpL16-k0 (antibody, human IgG1, kappa, Heterodimerized anti-glypican-3 IgG1; mutation in the GpH7-B3 chain only; also called He Ab) heavy 1: not shown heavy 2: not shown light: DIVMTQSPLSLPVTPGEPASISCQASESLVHSNRNTYLHWYLQKPGQSPQLLIYKVSNRFSGVPDRFSGSGSGTDFTLKISRVEAEDVGVYYCSQNTHVPPTFGQGTKVEIERTVAAPSVFIFPPSDEQLKSGTASVVCLLNNFYPREAKVQWKVDNALQSGNSQESVTEQDSKDSTYSLSSTLTLSKADYEKHKVYACEVTHQGLSSPVTKSFNRGEC	
99.9 control = 100	108 control = 100		GpH7-A5/GpH7-B3 variant S239_03V/GpL16-k0 (antibody, human IgG1, kappa, Heterodimerized anti-glypican-3 IgG1; mutation in the GpH7-B3 chain only; also called He Ab) heavy 1: not shown heavy 2: not shown light: DIVMTQSPLSLPVTPGEPASISCQASESLVHSNRNTYLHWYLQKPGQSPQLLIYKVSNRFSGVPDRFSGSGSGTDFTLKISRVEAEDVGVYYCSQNTHVPPTFGQGTKVEIERTVAAPSVFIFPPSDEQLKSGTASVVCLLNNFYPREAKVQWKVDNALQSGNSQESVTEQDSKDSTYSLSSTLTLSKADYEKHKVYACEVTHQGLSSPVTKSFNRGEC	
			GpH7-A5/GpH7-B3 variant Y296_20W/GpL16-k0 (antibody, human IgG1, kappa, Heterodimerized antibody, alteration in one H chain only; also called He Ab Y296W) heavy 1: not shown heavy 2: not shown light: DIVMTQSPLSLPVTPGEPASISCQASESLVHSNRNTYLHWYLQKPGQSPQLLIYKVSNRFSGVPDRFSGSGSGTDFTLKISRVEAEDVGVYYCSQNTHVPPTFGQGTKVEIERTVAAPSVFIFPPSDEQLKSGTASVVCLLNNFYPREAKVQWKVDNALQSGNSQESVTEQDSKDSTYSLSSTLTLSKADYEKHKVYACEVTHQGLSSPVTKSFNRGEC	He/Con_2b (FcγRIIb [3]): 103 % of control; He/Con_2aH (FcγRIIa H): 97.6 % of control
		136 % of control	GpH7-B3 variant H268_09D/GpL16-k0 (antibody, human IgG1, kappa, both H chains mutated; also called Ho Ab) heavy: not shown light: DIVMTQSPLSLPVTPGEPASISCQASESLVHSNRNTYLHWYLQKPGQSPQLLIYKVSNRFSGVPDRFSGSGSGTDFTLKISRVEAEDVGVYYCSQNTHVPPTFGQGTKVEIERTVAAPSVFIFPPSDEQLKSGTASVVCLLNNFYPREAKVQWKVDNALQSGNSQESVTEQDSKDSTYSLSSTLTLSKADYEKHKVYACEVTHQGLSSPVTKSFNRGEC	
